# Source: patent publication US20030139361A1, “Drug for gene therapy” (priority 2000, published 2003)
# Legend:
# [1] = test system: spleen cells derived from PVG rat and mitomycin-treated DA rat; assay: Lymphocyte mixed culture test (BrdU incorporation); format: cell-based; details: 4 days culture, BrdU 10 μM for last 16 hours; FIG. 2
# Method: To study the immunosuppressive activity of the human IDO protein prepared in Example 10, a lymphocyte mixed culture test was carried out. The spleen cells derived from a non-treated PVG rat and the spleen cells derived from a DA rat treated with 25 μg/ml of mitomycin (SIGMA-Aldrich Corporation) were seeded on a U bottom 96-well plate (NUNC Inc.) at 5×10^4/well and at 8×10^6/well, respectively. The IDO protein was then added and culturing was done for 4 days. Sixteen hours before the finish of culturing 5-bromo-2′deoxyuridine (BrdU) was added at a final concentration of 10 μM. The amount of BrdU incorporated into the intracellular DNA was quantified using a BrdU Labeling & Detection Kit III (Roche Diagnostics Inc.).
# [2] = test system: liver graft, DA rat to LEW rat (acute rejection); assay: Immunosuppressive activity of the IDO protein using acute rejection model (sympatric liver transplantation, DA rat to LEW rat); format: in vivo; details: for average days of take (survival): consecutive days through the tail vein after liver transplantation, N = 6
# Method: As for the animals, male LEW and DA rats (200-350 g) were used. In the administration of the aforementioned gene therapeutic agents, immediately after Ringer's Solution (Fuso Pharmaceutical Co. Ltd.) was used in the operation and was allowed to perfuse the portal veins and the liver, the respective agents were infused from the portal veins into the liver at a speed of 5 ml/min. After allowing to stand in the culture solution for 30 minutes, the liver into which the gene had been transferred was grafted to the LEW rat.
# A model similar to that in Example 2 was used to judge the therapeutic effect of the IDO protein prepared in Example 5. The IDO protein was administered consecutive days through the tail vein immediately after the liver transplantation at a dosage of 300 μg/rat.
molecule,measurement,setting,value
"IDO protein: Recombinant murine indoleamine 2,3-dioxygenase protein prepared in Example 5 from E. coli (protein, UniProt P28776 1-407, looked up, recombinant, E. coli) Indoleamine 2,3-dioxygenase 1: MALSKISPTEGSRRILEDHHIDEDVGFALPHPLVELPDAYSPWVLVARNLPVLIENGQLREEVEKLPTLSTDGLRGHRLQRLAHLALGYITMAYVWNRGDDDVRKVLPRNIAVPYCELSEKLGLPPILSYADCVLANWKKKDPNGPMTYENMDILFSFPGGDCDKGFFLVSLLVEIAASPAIKAIPTVSSAVERQDLKALEKALHDIATSLEKAKEIFKRMRDFVDPDTFFHVLRIYLSGWKCSSKLPEGLLYEGVWDTPKMFSGGSAGQSSIFQSLDVLLGIKHEAGKESPAEFLQEMREYMPPAHRNFLFFLESAPPVREFVISRHNEDLTKAYNECVNGLVSVRKFHLAIVDTYIMKPSKKKPTDGDKSEEPSNVESRGTGGTNPMTFLRSVKDTTEKALLSWP",immunosuppressive activity (amount of BrdU incorporated into intracellular DNA),[1],immunosuppressive effect was observed
same,average days of take (survival),[2]; 50 μg/rat,10.6 days
same,average days of take (survival),[2]; 300 μg/rat,>30 days
same,days of take of the liver graft (in words),"[2]; 300 μg/rat, tail vein, consecutive days",marked increase
